{"source": "patent US20060147922A1", "about": "(published 2006)", "binders": {"B1": {"name": "GAL4 AD-importin α5 fusion, aa 229-538 (Impα-C) (other, not shown: large carriers)", "chain": "TRNAVWALSNLCRGKSPPPEFAKVSPCLNVLSWLLFVSDTDVLADACWALSYLSDGPNDKIQAVIDAGVCRRLVELLMHNDYKVVSPALRAVGNIVTGDDIQTQVILNCSALQSLLHLLSSPKESIKKEACWTISNITAGNRAQIQTVIDANIFPALISILQTAEFRTRKEAAWAITNATSGGSAEQIKYLVELGCIKPLCDLLTVMDSKIVQVALNGLENILRLGEQEAKRNGTGINPYCALIEEAYGLDKIEFLQSHENQEIYQKAFDLIEHYFGTEDEDSSIAPQVDLNQQQYIFQQCEAPMEGFQL", "notes": "Yeast two-hybrid prey clone; also called amino-truncated importin α5; truncated importin α5 clone"}, "B2": {"name": "FLAG-tagged CIB (full-length CIB in pCMVTag2C) (other, not shown: small tags and cut ends)", "chain": "MGGSGSRLSKELLAEYQDLTFLTKQEILLAHRRFCELLPQEQRTVESSLRAQVPFEQILSLPELKANPFKERICRVFSTSPAKDSLSFEDFLDLLSVFSDTATPDIKSHYAFRIFDFDDDGTLNREDLSRLVNCLTGEGEDTRLSASEMKQLIDNILEESDIDRDGTINLSEFQHVISRSPDFASSFKIVL", "notes": "Expressed in HEK 293 cells overexpressing EDDM"}, "B3": {"name": "GAL4 AD-CIB fusion, full length CIB/KIP (other, not shown: large carriers)", "chain": "B2 chain", "notes": "Yeast two-hybrid prey clone from a human placenta cDNA library; also called CIB/KIP full-length clones"}, "B4": {"name": "GST fused to amino acids 263-538 of human importin α5 (NPI-1) (other)", "chain": "LFVSDTDVLADACWALSYLSDGPNDKIQAVIDAGVCRRLVELLMHNDYKVVSPALRAVGNIVTGDDIQTQVILNCSALQSLLHLLSSPKESIKKEACWTISNITAGNRAQIQTVIDANIFPALISILQTAEFRTRKEAAWAITNATSGGSAEQIKYLVELGCIKPLCDLLTVMDSKIVQVALNGLENILRLGEQEAKRNGTGINPYCALIEEAYGLDKIEFLQSHENQEIYQKAFDLIEHYFGTEDEDSSIAPQVDLNQQQYIFQQCEAPMEGFQL", "notes": "also called GST-importin α5; GST-importin α; not shown: glutathione S-transferase (GST) fusion partner from a bacterial plasmid"}, "B5": {"name": "GSTchk2-N derivative containing an R117A substitution (other)", "chain": "MSRESDVEAQQSHGSSACSQPHGSVTQSQGSSSQSQGISSSSTSTMPNSSQSSHSSSGTLSSLETVSTQELYSIPEDQEPEDQEPEEPTPAPWARLWALQDGFANLECVNDNYWFGADKSCEYCFDEPLLKRTDKYRTYSKKHFRIFREVGPKNSYIAYIEDHSGNGTFVNTELVGKGKRRPLNNNSEIALSLSRNKVFVFFDLTVDDQSVYPKALRDEYIMSKT", "notes": "also called GSTchk2-N R117A; R117A mutant; not shown: GST fusion partner at the N end and any vector linker"}}, "key": {"[1]": {"biological_target": "T1, GAL4 DBD-EDDM fusion (full length EDD C2768A mutant bait) (yeast; human, UniProt O95071 1-2799)", "T1 construct": "Bait for the yeast two-hybrid screen of a human placenta cDNA library; also called full length EDDM (C2768A mutant) bait", "assay": "yeast two-hybrid screen; truncated clone", "text": "(§1) The cDNAs for full length EDD mutant and carboxy domain mutants (EDDM and EDD5M) were screened against a human placenta cDNA library in the pACT2 vector by the yeast two-hybrid method (Matchmaker 2, Clontech, Palo Alto, Calif., USA). Stable transformants of Saccharomyces cerevisiae strain Y190 expressing EDD fusion protein were transformed with the library using the lithium acetate method and 2-3×10⁶ primary transformants selected on his-leu-trp-plates. Following a second round of selection on the same medium, colonies were assayed for β.galactosidase activity using a filter-based assay. Interacting plasmids that were positive for β.galactosidase only in the presence of the EDD bait plasmids were transformed into E. coli DH5α cells for further analysis. Manual sequencing was carried out using ³³P end-labelled primer in conjunction with the fmol Cycle sequencing kit (Promega Corp., Madison, Wis., USA). Sequences were analysed by Blast searches of the Genbank and EMBL databases and predicted proteins analysed for motifs using the ISREC Profile Scan Server (www.isrec.isb-sib.ch)."}, "[2]": {"biological_target": "T2, EDDM, full length EDD with Cys2768 to Ala mutation (human, UniProt O95071 1-2799)", "T2 construct": "Stably overexpressed in HEK 293 cells (FLAG-CIB co-immunoprecipitation) or transfected for reporter assays; also called mutant EDD; ligase-defective EDD mutant", "assay": "anti-FLAG M2 immunoprecipitation from HEK 293 cells overexpressing mutant EDD, EDD western blot", "procedure": "Left, HEK 293 cells overexpressing mutant EDD were transfected with a plasmid encoding Flag-tagged CIB or empty vector (vec). Extracts from these cells were subjected to immunoprecipitation using anti-FLAG Ab M2. Right, nuclear extracts prepared from MCF-7 cells following treatment with DNA damage agents phleomycin (Phleo) or hydroxyurea (HU) were incubated with either GST or GST-CIB fusion protein bound to glutathione-Sepharose beads. Bound proteins from both procedures were analysed by SDS-PAGE and western blotted for EDD and amounts bound are indicated as percentages relative to input.\nStable HEK 293 cells overexpressing EDDM were transfected with pCMVTag2C-CIB or empty vector using Fugene 6 reagent (Roche) for 24 h. Following 6 h incubation in the presence of MG132, cells were harvested and lysates prepared and one mg total protein incubated with anti-FLAG antibody M2 coupled to Sepharose (Sigma Chemical Co., St Louis, USA) for 2 h at 4° C. Beads were recovered by centrifugation and washed extensively in lysis buffer. Western blotting for EDD has been described (Callaghan et al, Oncogene 17, 3479-3491, 1998)."}, "[3]": {"biological_target": "T1, GAL4 DBD-EDDM fusion (full length EDD …)", "assay": "yeast two-hybrid screen", "text": "as §1, with “Manual sequencing was carried out using ³³P end-labelled primer in conjunction with the fmol Cycle sequencing kit (Promega Corp., Madison, Wis., USA).” left out\nFurther yeast two-hybrid screening was aimed at identifying other proteins involved in the ubiquitinylation or coactivation functions of EDD. […] The interaction between CIB and full length EDD initially detected in the yeast two-hybrid system (FIG. 10A) was confirmed by pull-down of in vitro translated EDD proteins with GST-CIB (FIG. 10B). […]"}, "EDDF1c (EDD aa 1-419)": {"biological_target": "T3, EDDF1c (EDD aa 1-419) (human, UniProt O95071 1-419)", "T3 construct": "In vitro translated, 35S-labelled; Contains neither N-terminal NLS", "T3 sequence": "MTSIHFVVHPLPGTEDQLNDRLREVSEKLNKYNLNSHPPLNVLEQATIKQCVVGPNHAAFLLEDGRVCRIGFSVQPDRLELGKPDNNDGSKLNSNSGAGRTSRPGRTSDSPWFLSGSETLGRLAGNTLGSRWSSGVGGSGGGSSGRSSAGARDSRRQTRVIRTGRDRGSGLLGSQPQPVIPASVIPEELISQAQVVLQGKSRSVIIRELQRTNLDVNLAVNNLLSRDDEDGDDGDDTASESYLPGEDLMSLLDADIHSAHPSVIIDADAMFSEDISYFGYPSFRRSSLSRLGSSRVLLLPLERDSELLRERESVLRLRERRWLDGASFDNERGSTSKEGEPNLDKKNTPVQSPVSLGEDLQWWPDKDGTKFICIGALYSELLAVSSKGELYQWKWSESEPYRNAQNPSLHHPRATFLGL", "assay": "GST-importin α5 pull-down of IVT N-terminal EDD derivatives"}, "[4]": {"biological_target": "T4, EDDF2, central domain of EDD (aa 889-1877) (human, UniProt O95071 889-1877)", "T4 construct": "In vitro translated, 35S-labelled; also called central third; central region of EDD", "T4 sequence": "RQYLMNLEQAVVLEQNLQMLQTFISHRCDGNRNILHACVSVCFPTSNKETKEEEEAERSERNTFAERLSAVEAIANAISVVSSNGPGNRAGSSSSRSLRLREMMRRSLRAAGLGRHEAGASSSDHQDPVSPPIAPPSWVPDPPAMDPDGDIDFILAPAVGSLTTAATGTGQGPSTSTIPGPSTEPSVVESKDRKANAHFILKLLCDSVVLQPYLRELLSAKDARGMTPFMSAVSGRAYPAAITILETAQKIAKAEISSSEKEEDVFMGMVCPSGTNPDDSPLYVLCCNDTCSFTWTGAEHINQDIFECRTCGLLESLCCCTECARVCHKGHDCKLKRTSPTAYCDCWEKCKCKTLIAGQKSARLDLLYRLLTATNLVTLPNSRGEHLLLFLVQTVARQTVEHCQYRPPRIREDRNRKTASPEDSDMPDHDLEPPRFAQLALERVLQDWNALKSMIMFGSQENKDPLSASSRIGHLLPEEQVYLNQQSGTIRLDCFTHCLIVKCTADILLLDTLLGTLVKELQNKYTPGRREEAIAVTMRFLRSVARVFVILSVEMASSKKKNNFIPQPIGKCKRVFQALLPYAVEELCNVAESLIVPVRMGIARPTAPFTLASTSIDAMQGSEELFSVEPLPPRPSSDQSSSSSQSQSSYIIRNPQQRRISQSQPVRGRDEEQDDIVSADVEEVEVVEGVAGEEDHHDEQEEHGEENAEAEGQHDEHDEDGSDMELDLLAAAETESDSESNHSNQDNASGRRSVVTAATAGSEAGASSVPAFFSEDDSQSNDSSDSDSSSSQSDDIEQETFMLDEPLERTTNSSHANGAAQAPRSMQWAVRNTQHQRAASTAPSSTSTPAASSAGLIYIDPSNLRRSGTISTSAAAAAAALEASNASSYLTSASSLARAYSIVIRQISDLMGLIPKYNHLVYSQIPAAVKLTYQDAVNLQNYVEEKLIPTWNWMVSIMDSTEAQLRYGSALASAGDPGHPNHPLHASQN", "assay": "GST-importin α5 pull-down of IVT 35S-EDD fragments"}, "[5]": {"biological_target": "T5, EDDF3, carboxy domain of EDD (aa 1877-2799) (human, UniProt O95071 1877-2799)", "T5 construct": "In vitro translated, 35S-labelled; also called carboxy third; carboxy terminal region of EDD", "T5 sequence": "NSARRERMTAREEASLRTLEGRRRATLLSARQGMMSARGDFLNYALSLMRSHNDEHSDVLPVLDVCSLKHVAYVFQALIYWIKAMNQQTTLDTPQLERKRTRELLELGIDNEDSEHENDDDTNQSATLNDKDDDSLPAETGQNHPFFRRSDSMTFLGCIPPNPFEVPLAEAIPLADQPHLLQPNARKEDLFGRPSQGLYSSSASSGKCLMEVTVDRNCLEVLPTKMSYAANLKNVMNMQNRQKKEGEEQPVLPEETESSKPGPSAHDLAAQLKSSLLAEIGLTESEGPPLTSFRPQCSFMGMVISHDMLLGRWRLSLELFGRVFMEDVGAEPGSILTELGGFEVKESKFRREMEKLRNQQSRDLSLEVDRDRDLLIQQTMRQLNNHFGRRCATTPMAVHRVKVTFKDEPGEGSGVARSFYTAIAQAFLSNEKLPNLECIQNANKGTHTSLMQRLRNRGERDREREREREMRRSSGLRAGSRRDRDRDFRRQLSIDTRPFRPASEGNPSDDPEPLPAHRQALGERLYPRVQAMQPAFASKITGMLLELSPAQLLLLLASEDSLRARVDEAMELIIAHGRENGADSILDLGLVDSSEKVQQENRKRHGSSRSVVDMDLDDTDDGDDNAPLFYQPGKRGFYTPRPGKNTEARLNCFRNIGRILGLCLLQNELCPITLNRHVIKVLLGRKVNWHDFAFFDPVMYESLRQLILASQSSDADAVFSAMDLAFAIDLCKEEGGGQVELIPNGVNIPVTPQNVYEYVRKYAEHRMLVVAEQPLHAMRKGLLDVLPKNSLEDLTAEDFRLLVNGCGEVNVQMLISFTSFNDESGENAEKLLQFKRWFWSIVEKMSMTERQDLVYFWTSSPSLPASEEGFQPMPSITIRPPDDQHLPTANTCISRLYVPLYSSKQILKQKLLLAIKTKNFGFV", "assay": "GST-importin α5 pull-down of IVT 35S-EDD fragments"}, "[6]": {"biological_target": "T6, EDDF5, central plus C-terminal domains of EDD (aa 889-2799) (human, UniProt O95071 889-2799, binding suggested to be mediated by a phosphorylated threonine residue; residue not identified)", "T6 construct": "In vitro translated, 35S-labelled; also called carboxyl two-thirds of EDD", "assay": "GST pull-down of IVT 35S-EDDF5", "procedure": "(§2) To determine the requirement for the chk2 FHA domain in this interaction, the binding between EDD and GSTchk2-N and two mutants was assessed. The R117A mutant contains a substitution within the FHA domain and involves a residue directly required for phosphothreonine binding."}, "[7]": {"biological_target": "T7, EDD protein, full length (aa 1-2799) (human, UniProt O95071 1-2799, EDD is phosphorylated in cells; the residue involved has not yet been identified)", "T7 construct": "also called in vitro translated 35S-labelled EDD; endogenous EDD", "assay": "GST pull-down from MCF-7 nuclear extracts, EDD western blot", "procedure": "For GST fusion protein pull-down of endogenous or recombinant EDD from cell lysates, 0.5 to 1 mg total protein was incubated with 5 μg GST or GST fusion protein bound to glutathione beads for 1-2 h at 4° C. Beads were washed extensively in 1% Triton X-100 lysis buffer and bound proteins resolved by SDS-PAGE and detected by immunoblotting with EDD antisera (Callaghan et al, Oncogene 17, 3479-3491, 1998). For immunoprecipitation, 10 μl importin α5 antisera (Peter Palese, Mount Sinai School of Medicine) was incubated with 0.5 to 1 mg cell lysate (4° C. for 1 h). Antibody conjugates were captured on protein A sepharose beads (4° C. for 1 h) and washed extensively in lysis buffer. Bound proteins were resolved by SDS-PAGE followed by immunoblotting with EDD antisera.\nas §2"}}, "data": [{"binder": "B1", "values": [{"measurement": "binding result", "setting": "[1]", "value": "binds"}]}, {"binder": "B2", "values": [{"measurement": "binding result", "setting": "[2]", "value": "binds"}]}, {"binder": "B3", "values": [{"measurement": "binding result", "setting": "[3]", "value": "binds"}]}, {"binder": "B4", "values": [{"measurement": "binding result", "setting": "EDDF1c (EDD aa 1-419)", "value": "no binding"}, {"measurement": "binding result", "setting": "[4]", "value": "no binding"}, {"measurement": "binding result", "setting": "[5]", "value": "no binding"}]}, {"binder": "B5", "values": [{"measurement": "binding result", "setting": "[6]", "value": "no binding"}, {"measurement": "binding result", "setting": "[7]", "value": "no binding"}]}]}
